Laboratory results published in US5352603A, “Highly alkaline proteases” (Kali-Chemie AG, priority 1989, dated 1994).

Key:
[1] = Washing test in Linitest with IEC test detergent with perborate (Example 19); details: pH 10.5, 30 minutes at 45° C.
Protocol: (§1) The washing tests were carried out in a Linitest with EMPA 117 (11 cm×11 cm; polyester/cotton blended fabric, soiled with milk, blood and permanent ink) as the test fabric (purchased from the Eidgenoessische Material pruefungsanstalt, Sankt Gallen, Switzerland)- Washing was carried out with 6 g/l IEC test detergent with perborate, type 1 (Lever Sunlicht GmbH, Mannheim; composition: 6.4% by weight linear alkylsulfonates, 2.3% by weight ethoxylated fatty alcohols with 14% ethoxy groups, 2.8% by weight sodium soap, 35% by weight sodium tripolyphosphate, 6% by weight sodium silicate, 1.5% by weight magnesium silicate, 1% by weight carboxy/methylcellulose, 0.2% by weight ethylenediaminetetraacetic acid (EDTA), 0.2% by weight optical brightener (stilbene type), 16.8% by weight sodium sulfate, and 7.8% by weight water as a spray-dried powder without bleach activator plus 20% by weight sodium perborate tetrahydrate) in water having a hardness of 15° on the German hardness scale. The pH of the wash liquor was pH 10.5. The washing time was 30 minutes at 45° C., and in each case 20 U of protease (prepared as described in Example 18) were employed per 100 ml. After the washing process was complete, the pieces of fabric were rinsed three times with tap water, dried and subsequently ironed. The reflection of the pieces of test cloth was determined four times on each side.

[2] = Washing test in Linitest with European-formulation detergent (Example 20); details: analogous to Example 19
Protocol: as §1, with “side. […]” for “side.”

B1: Initial protease: non-mutated highly alkaline protease from Bacillus alcalophilus HA1 (DSM 5466), amino-acid sequence of FIG. 1 (SEQ. ID. NO. 2) (protein)
chain: MKKPLGKIVASTALLISVAFSSSIASAAEEAKEKYLIGFNEQEAVSEFVEQVEANDEVAILSEEEEVEIELLHEFETIPVLSVELSPEDVDALELDPAISYIEEDAEVTTMAQSVPWGISRVQAPAAHNRGLTGSGVKVAVLDTGISTHPDLNIRGGASFVPGEPSTQDGNGHGTHVAGTIAALNNSIGVLGVAPSAELYAVKVLGASGSGSVSSIAQGLEWAGNNGMHVANLSLGSPSPSATLEQAVNSATSRGVLVVAASGNSGAGSISYPARYANAMAVGATDQNNNRASFSQYGAGLDIVAPGVNVQSTYPGSTYASLNGTSMATPHVAGAAALVKQKNPSWSNV
For B1, the Reflection ([1]; 6 g/l IEC test detergent with perborate, type 1, 20 U of protease per 100 ml, averages of 16 washing tests) was 71.1%, the “Relative Reflection” value ([1]; relative to initial protease = 100%, IEC test detergent with perborate, 20 U protease per 100 ml) was 100% and the Reflection ([2]; detergent in a formulation suitable for Europe (anionic and non-ionic surfactant, sodium tripolyphosphate, sodium perborate)) was 65.6%. The “Relative Reflection” value ([2]; relative to initial protease = 100%, detergent in a formulation suitable for Europe) was 100%.
